The values below come from patent publication US20080193444A1.

Among the targets are β1 integrin (human) (UniProt P05556); αvβ1 integrin (human) (UniProt P06756); α9 integrin (human) (UniProt Q13797); α1 integrin (human) (UniProt P56199); α2 integrin (human) (UniProt P17301); α5 integrin (human) (UniProt P08648); α6 integrin (human) (UniProt P23229); α2β1 integrin (human) (UniProt P17301).
Assay in all cases: cell-based or functional assay
The target in experiment [1] is αv integrin subunit (rat hippocampus) (rat).

Sequence of UniProt P08648 (P08648 42-1049): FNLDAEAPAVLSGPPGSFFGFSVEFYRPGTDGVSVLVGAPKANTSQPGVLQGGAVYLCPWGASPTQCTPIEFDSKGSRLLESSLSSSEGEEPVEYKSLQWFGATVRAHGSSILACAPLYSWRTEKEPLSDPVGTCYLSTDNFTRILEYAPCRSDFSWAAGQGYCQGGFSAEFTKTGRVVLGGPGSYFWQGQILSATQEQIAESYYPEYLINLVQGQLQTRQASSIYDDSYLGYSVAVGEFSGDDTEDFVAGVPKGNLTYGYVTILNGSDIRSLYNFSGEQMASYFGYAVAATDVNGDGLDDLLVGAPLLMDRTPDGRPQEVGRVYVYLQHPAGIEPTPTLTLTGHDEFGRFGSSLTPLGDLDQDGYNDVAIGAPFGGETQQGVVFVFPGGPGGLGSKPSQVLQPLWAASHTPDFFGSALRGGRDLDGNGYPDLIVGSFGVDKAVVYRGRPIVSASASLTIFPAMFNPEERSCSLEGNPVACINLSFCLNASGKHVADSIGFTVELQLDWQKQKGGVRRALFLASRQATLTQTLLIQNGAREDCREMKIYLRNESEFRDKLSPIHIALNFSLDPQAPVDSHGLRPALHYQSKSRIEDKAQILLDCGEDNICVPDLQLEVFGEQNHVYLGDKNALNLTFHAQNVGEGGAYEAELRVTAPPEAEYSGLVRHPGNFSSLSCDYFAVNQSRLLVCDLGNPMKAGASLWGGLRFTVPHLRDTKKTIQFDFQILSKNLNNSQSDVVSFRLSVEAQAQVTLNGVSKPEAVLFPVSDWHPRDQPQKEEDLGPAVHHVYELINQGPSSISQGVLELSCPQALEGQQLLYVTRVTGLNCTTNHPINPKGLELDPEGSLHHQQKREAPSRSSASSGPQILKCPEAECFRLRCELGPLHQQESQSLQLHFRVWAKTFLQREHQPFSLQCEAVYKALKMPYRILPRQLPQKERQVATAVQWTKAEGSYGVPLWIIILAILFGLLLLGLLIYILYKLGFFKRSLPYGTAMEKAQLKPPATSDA
Sequence of UniProt P05556 (P05556 21-798): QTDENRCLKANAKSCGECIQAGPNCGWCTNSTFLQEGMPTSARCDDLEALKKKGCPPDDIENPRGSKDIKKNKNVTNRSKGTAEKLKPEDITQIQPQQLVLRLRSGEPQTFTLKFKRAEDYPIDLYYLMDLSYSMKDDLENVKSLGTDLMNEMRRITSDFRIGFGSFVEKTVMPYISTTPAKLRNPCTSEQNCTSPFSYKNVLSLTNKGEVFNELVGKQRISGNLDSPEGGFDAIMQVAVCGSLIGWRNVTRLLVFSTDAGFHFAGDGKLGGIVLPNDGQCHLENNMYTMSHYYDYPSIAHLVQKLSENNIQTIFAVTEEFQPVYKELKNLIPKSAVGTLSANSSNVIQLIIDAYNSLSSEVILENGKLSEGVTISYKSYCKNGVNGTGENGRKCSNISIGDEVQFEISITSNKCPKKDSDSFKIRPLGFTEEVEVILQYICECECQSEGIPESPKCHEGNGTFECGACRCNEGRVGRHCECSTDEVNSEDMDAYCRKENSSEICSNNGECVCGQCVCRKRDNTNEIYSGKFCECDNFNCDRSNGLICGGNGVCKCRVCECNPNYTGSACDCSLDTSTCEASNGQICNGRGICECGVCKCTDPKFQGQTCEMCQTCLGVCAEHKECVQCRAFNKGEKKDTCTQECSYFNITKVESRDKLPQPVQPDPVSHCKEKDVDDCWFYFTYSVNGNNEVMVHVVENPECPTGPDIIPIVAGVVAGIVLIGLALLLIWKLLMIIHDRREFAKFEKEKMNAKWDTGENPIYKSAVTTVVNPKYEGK
Sequence of UniProt Q13797 (Q13797 30-1035): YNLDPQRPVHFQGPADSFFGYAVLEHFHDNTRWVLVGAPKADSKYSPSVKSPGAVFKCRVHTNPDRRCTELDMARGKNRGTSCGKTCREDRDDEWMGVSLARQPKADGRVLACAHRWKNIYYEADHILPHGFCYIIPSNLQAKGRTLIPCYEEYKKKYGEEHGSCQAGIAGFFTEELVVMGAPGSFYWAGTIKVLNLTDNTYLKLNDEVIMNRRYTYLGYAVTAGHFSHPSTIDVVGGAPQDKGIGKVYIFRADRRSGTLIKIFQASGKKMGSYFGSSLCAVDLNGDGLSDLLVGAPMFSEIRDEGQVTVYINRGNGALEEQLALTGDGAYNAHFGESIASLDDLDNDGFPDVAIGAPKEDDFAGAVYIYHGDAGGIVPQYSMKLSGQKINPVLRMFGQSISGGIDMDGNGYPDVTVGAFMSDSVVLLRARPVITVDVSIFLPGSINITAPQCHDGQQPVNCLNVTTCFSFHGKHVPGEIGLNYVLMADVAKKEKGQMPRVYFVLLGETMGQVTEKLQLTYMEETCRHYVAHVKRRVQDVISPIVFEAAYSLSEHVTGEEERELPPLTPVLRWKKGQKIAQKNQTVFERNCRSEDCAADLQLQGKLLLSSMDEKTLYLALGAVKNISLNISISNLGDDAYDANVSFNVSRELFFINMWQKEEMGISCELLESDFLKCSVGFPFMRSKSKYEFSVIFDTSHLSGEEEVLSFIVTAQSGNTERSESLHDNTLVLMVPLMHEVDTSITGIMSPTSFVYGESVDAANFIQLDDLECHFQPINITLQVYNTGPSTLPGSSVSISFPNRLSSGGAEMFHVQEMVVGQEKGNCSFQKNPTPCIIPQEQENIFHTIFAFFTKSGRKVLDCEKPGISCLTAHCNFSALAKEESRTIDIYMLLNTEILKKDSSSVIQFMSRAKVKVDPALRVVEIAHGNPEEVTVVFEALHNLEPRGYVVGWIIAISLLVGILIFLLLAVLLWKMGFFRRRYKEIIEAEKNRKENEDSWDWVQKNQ
Sequence of UniProt P23229 (P23229 24-1130): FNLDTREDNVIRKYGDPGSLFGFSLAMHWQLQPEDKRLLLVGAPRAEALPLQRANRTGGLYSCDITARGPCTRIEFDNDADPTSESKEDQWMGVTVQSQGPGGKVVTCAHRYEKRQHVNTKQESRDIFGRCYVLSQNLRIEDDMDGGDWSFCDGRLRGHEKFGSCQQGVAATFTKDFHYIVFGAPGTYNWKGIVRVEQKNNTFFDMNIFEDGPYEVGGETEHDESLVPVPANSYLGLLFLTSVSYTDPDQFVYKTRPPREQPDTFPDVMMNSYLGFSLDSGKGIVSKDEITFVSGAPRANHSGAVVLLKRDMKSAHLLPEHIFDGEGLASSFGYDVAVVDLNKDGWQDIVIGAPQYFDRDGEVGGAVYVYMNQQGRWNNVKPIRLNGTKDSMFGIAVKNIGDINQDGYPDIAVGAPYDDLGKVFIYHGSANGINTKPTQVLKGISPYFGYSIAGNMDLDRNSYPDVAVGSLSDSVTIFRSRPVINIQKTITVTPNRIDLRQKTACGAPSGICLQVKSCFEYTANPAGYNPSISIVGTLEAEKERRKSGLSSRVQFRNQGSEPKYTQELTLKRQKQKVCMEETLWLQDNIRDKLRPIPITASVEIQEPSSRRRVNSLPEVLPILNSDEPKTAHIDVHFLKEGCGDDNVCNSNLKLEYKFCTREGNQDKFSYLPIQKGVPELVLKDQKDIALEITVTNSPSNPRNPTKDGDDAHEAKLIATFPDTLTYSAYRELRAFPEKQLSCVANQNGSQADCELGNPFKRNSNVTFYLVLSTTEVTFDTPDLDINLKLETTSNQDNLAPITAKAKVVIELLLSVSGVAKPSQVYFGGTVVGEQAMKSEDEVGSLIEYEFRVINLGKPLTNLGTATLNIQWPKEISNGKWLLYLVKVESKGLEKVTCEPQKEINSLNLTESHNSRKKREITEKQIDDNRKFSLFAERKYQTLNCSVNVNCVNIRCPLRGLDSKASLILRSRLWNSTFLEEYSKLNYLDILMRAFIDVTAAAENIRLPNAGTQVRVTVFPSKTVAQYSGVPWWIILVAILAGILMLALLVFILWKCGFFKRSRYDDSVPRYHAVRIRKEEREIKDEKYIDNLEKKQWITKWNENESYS
Sequence of UniProt P06756 (P06756 31-1048, chain 1 of 2): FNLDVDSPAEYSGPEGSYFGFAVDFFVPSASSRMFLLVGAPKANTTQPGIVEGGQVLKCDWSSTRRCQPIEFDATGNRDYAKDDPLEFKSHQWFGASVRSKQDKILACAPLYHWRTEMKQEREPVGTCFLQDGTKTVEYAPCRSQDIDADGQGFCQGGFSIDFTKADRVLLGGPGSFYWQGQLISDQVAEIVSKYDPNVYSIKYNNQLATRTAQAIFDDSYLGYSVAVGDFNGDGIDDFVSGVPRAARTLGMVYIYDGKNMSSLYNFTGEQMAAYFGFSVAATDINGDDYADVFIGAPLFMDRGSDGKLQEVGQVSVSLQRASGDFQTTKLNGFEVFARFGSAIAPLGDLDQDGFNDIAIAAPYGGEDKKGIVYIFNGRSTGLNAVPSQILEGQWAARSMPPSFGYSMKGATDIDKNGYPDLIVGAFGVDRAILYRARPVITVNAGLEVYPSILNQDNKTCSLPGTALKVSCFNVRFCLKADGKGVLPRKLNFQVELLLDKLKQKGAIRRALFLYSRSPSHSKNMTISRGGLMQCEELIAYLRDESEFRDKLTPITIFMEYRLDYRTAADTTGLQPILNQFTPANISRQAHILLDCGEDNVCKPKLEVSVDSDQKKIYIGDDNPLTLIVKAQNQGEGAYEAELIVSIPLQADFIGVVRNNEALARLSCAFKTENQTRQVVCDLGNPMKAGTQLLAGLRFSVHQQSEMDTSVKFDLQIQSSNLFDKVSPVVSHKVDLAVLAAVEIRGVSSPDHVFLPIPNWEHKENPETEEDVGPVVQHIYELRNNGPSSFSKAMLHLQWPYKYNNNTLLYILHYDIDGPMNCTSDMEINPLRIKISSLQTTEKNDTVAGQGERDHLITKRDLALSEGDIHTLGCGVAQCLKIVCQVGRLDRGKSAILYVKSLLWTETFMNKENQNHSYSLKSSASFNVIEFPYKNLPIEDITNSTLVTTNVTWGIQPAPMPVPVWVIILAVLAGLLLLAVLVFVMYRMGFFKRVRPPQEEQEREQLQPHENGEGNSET
Sequence of UniProt P06756 (P05556 21-798, chain 2 of 2, further chain): as the sequence (P05556 21-798) above

For TS2/16 (activating) (antibody), in the experiment with β1 integrin (human), the Maximal inhibition of toxicity (%) turned out to be 0%.
Take 17E6 (antibody): in experiment [1], the LTP in the presence of Aβ plus antibody, CA1 in vivo (% baseline) came out at 135% and the LTP in the presence of Aβ plus antibody, dentate gyrus in vitro (% baseline) was 153%.
Turning to Superfibronectin (ligand), the LTP in the presence of Aβ plus superfibronectin, dentate gyrus in vitro (% baseline) in experiment [1] stood at 147%. In the experiment with αvβ1 integrin (human), this molecule came in with a Maximal inhibition of toxicity (%) of 100%.
Consider AIIB2 (antibody), for which, in the experiment with β1 integrin (human), the Maximal inhibition of toxicity (%) amounted to 100%.
Y9A2 (antibody) showed a Maximal inhibition of toxicity (%) with α9 integrin (human) of 0%.
With “echistatin (from UniProt P17347 131-179) (peptide)”, the LTP in the presence of Aβ plus echistatin, dentate gyrus in vitro (% baseline) in experiment [1] was 143%.
TS2/7 (antibody) showed a Maximal inhibition of toxicity (%) with α1 integrin (human) of 5%.
Gi9 (antibody) yielded a Maximal inhibition of toxicity (%) with α2 integrin (human) of 100%.
For P1D6 (antibody), the Maximal inhibition of toxicity (%) in the experiment with α5 integrin (human) was determined as 5%.
In the case of GoH3 (antibody), the Maximal inhibition of toxicity (%) with α6 integrin (human) came to 40%.
As for Laminin (ligand), in the experiment with α2β1 integrin (human), the Maximal inhibition of toxicity (%) is 20%.
In the experiment with α5 integrin (human), SAM1 (antibody) displayed a Maximal inhibition of toxicity (%) of 5%.

B1: MAB1998 (antibody, from another filing, V domains shown)
VH: QVQLKESGPGLVAPSQSLSITCTVSGFSLTNYGIHWVRQPPGKGLEWLGVIWARGFTNYNSALMSRLIITKDNSQSQVFLKMNSLQPDDSATYFCARANDGVYYAMDYWGQGTSVTVSS
VL: QFVLTQSPAFLSASPGEKVTMTCSANSSVNYIHWYQQKSGTSPKKWIYDTSKLASGVPVRFSGSGSGTSYSLTISSMETEDAATYYCQQWTTNPLTFGAGTRVELK
With B1, the Maximal inhibition of toxicity (%) in the experiment with α2 integrin (human) was 25%.
